Results published in PMC7255509, “Crystal structure of the catalytic C‐lobe of the HECT‐type ubiquitin ligase E6AP” (Protein Science : A Publication of the Protein Society, 2020).

Target: the molecule itself
Test: crystal structure; crystallised at >=30 mg/ml (crystal used: 60 mg/ml), 20°C, sitting drops, 0.1 M calcium chloride, 0.1 M sodium acetate pH 4.6, 30% PEG400; 1.3 Å; dimer of two symmetry-related molecules

B1: C-lobe of the catalytic (HECT) domain of E6AP (domain or fragment, UniProt Q05086-2 741-852, looked up)
chain: NLDFQALEETTEYDGGYTRDSVLIREFWEIVHSFTDEQKRLFLQFTTGTDRAPVGGLGKLKMIIAKNGPDTERLPTSHTCFNVLLLPEYSSKEKLKERLLKAITYAKGFGML
notes: E6AP (UBE3A), HECT-type ubiquitin ligase, C-lobe of the catalytic domain, residues 741-852; catalytic Cys820; numbers count on: isoform 1 (ends at residue 852); Cleavage by 3C protease may leave a few residues of the vector at the N-terminus; In the crystal the two Cys820 are read as partly joined by an intermolecular disulfide; also called E6AP C-lobe; C-terminal lobe of E6AP; source: E. coli …
- stoichiometry N: 2
